Data taken from patent US20190032033A1.

Molecular target: β1AR-84 (minimally thermostabilised turkey β1 adrenergic receptor construct) (turkey), P07700
Assay: cell-based or functional assay

β1AR-84 (minimally thermostabilised turkey β1 adrenergic receptor construct) (turkey), P07700, sequence (P07700 other isoform, or with tags, fused parts or gaps): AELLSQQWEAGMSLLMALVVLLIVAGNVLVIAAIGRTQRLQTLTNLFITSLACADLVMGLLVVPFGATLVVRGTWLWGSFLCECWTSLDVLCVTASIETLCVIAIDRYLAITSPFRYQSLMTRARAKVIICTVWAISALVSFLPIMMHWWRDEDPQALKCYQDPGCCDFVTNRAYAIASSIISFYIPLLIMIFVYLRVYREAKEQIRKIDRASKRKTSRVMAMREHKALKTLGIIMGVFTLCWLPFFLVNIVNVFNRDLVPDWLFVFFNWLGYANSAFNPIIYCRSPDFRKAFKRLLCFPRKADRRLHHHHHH

B1: Mini Gs393, P04896 26-394 (protein)
chain: GIEKQLQKDKQVYRATHRLLLLGADNSGKSTIVKQMRILHGGSGGSGGTSGIFETKFQVDKVNFHMFDVGGQRDERRKWIQCFNDVTAIIFVVDSSDYNRLQEALNDFKSIWNNRWLRTISVILFLNKQDLLAEKVLAGKSKIEDYFPEFARYTTPEDATPEPGEDPRVTRAKYFIRDEFLRISTASGDGRHYCYPHFTCAVDTENARRIFNDCRDIIQRMHLRQYELL
For B1, the isoprenaline Ki of DDM-solubilised β1AR-84 (alone […] µM) was 0.0047 µM, the isoprenaline Ki of membrane-embedded β1AR-84 (alone […] µM) was 0.0036 µM and the isoprenaline Ki of β1AR-84 with 0.25 mM GTPγS (alone 3.0 µM) was 5.2 nM.
